Source: patent US20130281314A1

Columns and labels:
BRCC36 (human) [1] = target: BRCC36 (human) (UniProt P46736); experiment: anti-HA IP-MS, HEK293T cells
OTUB1 (human) [2] = target: OTUB1 (human) (UniProt Q96FW1); experiment: anti-HA IP-MS, HEK293T cells
UCHL1 [3] = target: UCHL1 (UniProt P09936); experiment: anti-HA IP-MS, HEK293T cells
UCHL5 (human) [4] = target: UCHL5 (human) (UniProt Q9Y5K5); experiment: anti-HA IP-MS, HEK293T cells
USP10 [5] = experiment: anti-HA IP-MS, HEK293T cells
USP11 (human) [6] = target: USP11 (human) (UniProt P51784); experiment: anti-HA IP-MS, HEK293T cells
USP13 (human) [7] = target: USP13 (human) (UniProt Q92995); experiment: anti-HA IP-MS, HEK293T cells
USP14 (human) [8] = target: USP14 (human) (UniProt P54578); experiment: anti-HA IP-MS, HEK293T cells
USP15 (human) [9] = target: USP15 (human) (UniProt Q9Y4E8); experiment: anti-HA IP-MS, HEK293T cells
USP19 (human) = USP19 (human) (UniProt O94966); experiment: anti-HA IP-MS, HEK293T cells
USP24 (human) [10] = target: USP24 (human) (UniProt Q9UPU5); experiment: anti-HA IP-MS, HEK293T cells
USP25 (human) [11] = target: USP25 (human) (UniProt Q9UHP3); experiment: anti-HA IP-MS, HEK293T cells
USP34 [12] = experiment: anti-HA IP-MS, HEK293T cells
USP47 (human) [13] = target: USP47 (human) (UniProt Q96K76); experiment: anti-HA IP-MS, HEK293T cells
USP8 (human) [14] = target: USP8 (human) (UniProt P40818); experiment: anti-HA IP-MS, HEK293T cells
USP9X (human) [15] = target: USP9X (human) (UniProt Q93008); experiment: anti-HA IP-MS, HEK293T cells
BRCC36 (human) [16] = target: BRCC36 (human) (UniProt P46736); experiment: anti-HA IP-MS, WT HCT116 cells
OTUB1 (human) [17] = target: OTUB1 (human) (UniProt Q96FW1); experiment: anti-HA IP-MS, WT HCT116 cells
UCHL1 [18] = target: UCHL1 (UniProt P09936); experiment: anti-HA IP-MS, WT HCT116 cells
UCHL5 (human) [19] = target: UCHL5 (human) (UniProt Q9Y5K5); experiment: anti-HA IP-MS, WT HCT116 cells
USP10 [20] = experiment: anti-HA IP-MS, WT HCT116 cells
USP11 (human) [21] = target: USP11 (human) (UniProt P51784); experiment: anti-HA IP-MS, WT HCT116 cells
USP13 (human) [22] = target: USP13 (human) (UniProt Q92995); experiment: anti-HA IP-MS, WT HCT116 cells
USP14 (human) [23] = target: USP14 (human) (UniProt P54578); experiment: anti-HA IP-MS, WT HCT116 cells
USP15 (human) [24] = target: USP15 (human) (UniProt Q9Y4E8); experiment: anti-HA IP-MS, WT HCT116 cells
USP24 (human) [25] = target: USP24 (human) (UniProt Q9UPU5); experiment: anti-HA IP-MS, WT HCT116 cells
USP25 (human) [26] = target: USP25 (human) (UniProt Q9UHP3); experiment: anti-HA IP-MS, WT HCT116 cells
USP34 [27] = experiment: anti-HA IP-MS, WT HCT116 cells
USP47 (human) [28] = target: USP47 (human) (UniProt Q96K76); experiment: anti-HA IP-MS, WT HCT116 cells
USP8 (human) [29] = target: USP8 (human) (UniProt P40818); experiment: anti-HA IP-MS, WT HCT116 cells
USP9X (human) [30] = target: USP9X (human) (UniProt Q93008); experiment: anti-HA IP-MS, WT HCT116 cells

Sequence of USP47 (human) (Q96K76 whole entry): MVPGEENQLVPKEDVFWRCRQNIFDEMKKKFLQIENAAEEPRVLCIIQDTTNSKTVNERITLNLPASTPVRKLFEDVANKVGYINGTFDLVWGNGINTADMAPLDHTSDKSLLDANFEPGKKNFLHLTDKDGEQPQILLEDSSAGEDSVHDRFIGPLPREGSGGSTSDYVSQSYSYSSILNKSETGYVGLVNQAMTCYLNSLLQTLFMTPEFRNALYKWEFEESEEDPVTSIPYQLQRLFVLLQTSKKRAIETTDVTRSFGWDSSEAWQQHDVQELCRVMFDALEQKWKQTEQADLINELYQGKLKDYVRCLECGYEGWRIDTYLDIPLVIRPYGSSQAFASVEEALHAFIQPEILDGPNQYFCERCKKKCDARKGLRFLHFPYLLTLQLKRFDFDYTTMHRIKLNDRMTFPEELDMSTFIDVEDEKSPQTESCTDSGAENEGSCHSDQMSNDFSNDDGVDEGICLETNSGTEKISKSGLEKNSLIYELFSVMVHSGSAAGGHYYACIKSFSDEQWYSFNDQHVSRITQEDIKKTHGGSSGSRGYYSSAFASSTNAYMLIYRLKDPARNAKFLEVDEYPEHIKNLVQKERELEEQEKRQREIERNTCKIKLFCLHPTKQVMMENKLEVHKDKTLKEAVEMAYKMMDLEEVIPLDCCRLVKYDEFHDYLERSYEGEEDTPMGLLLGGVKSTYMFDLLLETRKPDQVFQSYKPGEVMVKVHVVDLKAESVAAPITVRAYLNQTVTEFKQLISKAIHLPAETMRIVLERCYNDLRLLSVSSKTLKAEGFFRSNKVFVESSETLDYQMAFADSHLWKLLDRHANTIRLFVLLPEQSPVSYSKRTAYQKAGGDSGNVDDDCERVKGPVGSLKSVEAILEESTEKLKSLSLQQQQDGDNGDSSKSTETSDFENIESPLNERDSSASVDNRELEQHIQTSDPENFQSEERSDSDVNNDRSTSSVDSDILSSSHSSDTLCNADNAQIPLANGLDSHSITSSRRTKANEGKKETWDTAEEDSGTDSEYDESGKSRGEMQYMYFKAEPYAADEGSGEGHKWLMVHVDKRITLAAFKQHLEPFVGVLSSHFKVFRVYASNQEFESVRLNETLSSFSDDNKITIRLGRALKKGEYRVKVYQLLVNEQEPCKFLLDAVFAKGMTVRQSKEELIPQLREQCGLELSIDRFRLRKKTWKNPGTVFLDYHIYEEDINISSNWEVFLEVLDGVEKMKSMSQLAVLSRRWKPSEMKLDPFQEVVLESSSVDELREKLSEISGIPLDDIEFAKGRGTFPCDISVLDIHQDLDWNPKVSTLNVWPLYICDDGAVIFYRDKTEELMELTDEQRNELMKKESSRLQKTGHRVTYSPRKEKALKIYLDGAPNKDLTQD
Sequence of USP11 (human) (P51784 whole entry): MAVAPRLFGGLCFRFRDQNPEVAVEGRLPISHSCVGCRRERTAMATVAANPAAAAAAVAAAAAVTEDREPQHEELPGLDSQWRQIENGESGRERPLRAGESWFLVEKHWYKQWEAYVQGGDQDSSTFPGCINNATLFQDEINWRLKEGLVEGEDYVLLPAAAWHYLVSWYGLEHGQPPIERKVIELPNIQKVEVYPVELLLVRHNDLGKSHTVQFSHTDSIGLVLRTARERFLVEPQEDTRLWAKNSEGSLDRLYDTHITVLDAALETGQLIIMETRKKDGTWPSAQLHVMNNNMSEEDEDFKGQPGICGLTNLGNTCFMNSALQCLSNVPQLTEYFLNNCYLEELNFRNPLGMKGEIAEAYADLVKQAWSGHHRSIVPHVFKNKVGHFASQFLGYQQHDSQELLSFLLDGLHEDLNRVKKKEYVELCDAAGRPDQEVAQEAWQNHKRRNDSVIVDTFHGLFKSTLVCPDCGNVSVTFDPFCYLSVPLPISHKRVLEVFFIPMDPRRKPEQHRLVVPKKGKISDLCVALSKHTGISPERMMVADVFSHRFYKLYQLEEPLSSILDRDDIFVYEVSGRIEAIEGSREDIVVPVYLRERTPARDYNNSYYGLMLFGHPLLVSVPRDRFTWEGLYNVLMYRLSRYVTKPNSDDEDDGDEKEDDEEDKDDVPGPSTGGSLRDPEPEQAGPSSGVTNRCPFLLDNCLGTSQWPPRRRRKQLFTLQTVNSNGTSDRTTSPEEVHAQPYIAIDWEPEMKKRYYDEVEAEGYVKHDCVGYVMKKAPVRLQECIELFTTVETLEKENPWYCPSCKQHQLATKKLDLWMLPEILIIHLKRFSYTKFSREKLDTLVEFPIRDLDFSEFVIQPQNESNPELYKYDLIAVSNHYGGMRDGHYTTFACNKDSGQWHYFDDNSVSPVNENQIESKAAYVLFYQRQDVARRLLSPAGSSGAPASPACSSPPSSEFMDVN
Sequence of USP25 (human) (Q9UHP3 whole entry): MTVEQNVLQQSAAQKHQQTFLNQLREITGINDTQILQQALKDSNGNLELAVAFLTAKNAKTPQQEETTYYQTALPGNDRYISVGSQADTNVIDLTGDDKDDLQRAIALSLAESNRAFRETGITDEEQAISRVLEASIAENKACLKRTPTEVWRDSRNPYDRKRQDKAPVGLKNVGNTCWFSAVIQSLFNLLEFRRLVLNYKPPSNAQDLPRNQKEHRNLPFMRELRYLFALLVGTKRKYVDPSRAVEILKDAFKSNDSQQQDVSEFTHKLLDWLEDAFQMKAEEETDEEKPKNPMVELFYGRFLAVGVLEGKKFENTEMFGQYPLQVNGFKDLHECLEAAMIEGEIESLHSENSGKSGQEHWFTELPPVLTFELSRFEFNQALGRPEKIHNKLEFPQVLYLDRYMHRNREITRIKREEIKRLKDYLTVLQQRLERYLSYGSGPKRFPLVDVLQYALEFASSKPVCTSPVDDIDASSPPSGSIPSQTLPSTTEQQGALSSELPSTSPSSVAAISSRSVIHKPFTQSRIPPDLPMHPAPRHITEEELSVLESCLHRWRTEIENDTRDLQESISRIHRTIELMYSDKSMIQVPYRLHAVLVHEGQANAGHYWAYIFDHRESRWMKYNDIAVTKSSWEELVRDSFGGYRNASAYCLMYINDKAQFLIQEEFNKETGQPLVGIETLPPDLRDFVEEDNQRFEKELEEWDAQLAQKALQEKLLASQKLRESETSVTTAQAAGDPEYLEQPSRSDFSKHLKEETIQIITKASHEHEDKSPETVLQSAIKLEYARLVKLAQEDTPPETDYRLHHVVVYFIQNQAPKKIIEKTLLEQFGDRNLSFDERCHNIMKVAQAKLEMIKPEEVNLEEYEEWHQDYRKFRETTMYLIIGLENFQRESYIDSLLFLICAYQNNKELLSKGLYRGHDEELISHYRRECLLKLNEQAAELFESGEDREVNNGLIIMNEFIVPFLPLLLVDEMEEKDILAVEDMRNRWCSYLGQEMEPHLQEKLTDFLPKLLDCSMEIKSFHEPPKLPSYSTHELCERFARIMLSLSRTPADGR
Sequence of USP15 (human) (Q9Y4E8 2-981 limits assumed): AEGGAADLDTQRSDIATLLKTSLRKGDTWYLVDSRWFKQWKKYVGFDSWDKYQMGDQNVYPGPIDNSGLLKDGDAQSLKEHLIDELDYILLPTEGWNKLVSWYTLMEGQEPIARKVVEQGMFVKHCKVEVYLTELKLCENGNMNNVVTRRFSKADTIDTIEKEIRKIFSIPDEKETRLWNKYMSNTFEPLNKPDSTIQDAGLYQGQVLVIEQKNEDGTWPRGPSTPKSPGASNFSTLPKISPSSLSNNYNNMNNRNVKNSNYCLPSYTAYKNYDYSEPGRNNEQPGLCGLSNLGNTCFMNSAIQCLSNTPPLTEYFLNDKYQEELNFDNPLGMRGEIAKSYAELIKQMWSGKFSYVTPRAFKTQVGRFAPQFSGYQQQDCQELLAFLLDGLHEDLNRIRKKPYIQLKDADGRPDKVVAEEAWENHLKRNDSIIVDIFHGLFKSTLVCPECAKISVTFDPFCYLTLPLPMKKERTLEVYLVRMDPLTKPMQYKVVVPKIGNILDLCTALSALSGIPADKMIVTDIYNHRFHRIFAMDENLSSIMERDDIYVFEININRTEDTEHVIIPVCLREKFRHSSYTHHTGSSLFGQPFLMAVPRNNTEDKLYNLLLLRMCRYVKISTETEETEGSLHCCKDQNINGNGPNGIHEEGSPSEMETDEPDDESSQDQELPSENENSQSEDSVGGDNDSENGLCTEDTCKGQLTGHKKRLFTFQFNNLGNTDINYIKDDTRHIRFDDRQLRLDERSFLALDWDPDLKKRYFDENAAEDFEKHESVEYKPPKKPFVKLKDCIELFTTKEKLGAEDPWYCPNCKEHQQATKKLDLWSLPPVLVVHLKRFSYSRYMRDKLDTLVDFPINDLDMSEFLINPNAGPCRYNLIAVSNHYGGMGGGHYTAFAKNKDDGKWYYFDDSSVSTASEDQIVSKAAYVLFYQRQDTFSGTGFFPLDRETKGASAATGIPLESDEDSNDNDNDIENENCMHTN
Sequence of UCHL1 (P09936 1-220 limits assumed): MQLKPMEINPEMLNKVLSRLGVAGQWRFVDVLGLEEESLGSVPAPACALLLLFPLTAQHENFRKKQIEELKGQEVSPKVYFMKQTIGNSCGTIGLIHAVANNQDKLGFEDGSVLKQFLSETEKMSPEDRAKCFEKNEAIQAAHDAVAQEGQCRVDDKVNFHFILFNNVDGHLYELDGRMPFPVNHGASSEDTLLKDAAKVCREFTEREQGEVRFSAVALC
Sequence of OTUB1 (human) (Q96FW1 2-271 limits assumed): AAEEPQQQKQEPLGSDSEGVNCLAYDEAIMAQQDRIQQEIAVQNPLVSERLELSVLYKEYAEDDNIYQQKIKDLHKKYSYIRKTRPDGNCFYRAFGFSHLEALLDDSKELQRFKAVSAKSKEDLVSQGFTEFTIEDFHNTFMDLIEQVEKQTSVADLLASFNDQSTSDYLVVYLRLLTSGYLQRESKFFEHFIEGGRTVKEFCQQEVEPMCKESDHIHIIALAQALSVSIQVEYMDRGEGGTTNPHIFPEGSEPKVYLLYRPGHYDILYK

Substance: HA-UbΔGG
- total peptides (unique peptides) (BRCC36 (human) [1]): 0 peptides
- total peptides (unique peptides) (OTUB1 (human) [2]): 9 peptides
- total peptides (unique peptides) (UCHL1 [3]): 3 peptides
- total peptides (unique peptides) (UCHL5 (human) [4]): 9 peptides
- total peptides (unique peptides) (USP10 [5]): 6 peptides
- total peptides (unique peptides) (USP11 (human) [6]): 4 peptides
- total peptides (unique peptides) (USP13 (human) [7]): 0 peptides
- total peptides (unique peptides) (USP14 (human) [8]): 4 peptides
- total peptides (unique peptides) (USP15 (human) [9]): 1 peptides
- total peptides (unique peptides) (USP19 (human)): 54 peptides
- total peptides (unique peptides) (USP24 (human) [10]): 20 peptides
- total peptides (unique peptides) (USP25 (human) [11]): 2 peptides
- total peptides (unique peptides) (USP34 [12]): 1 peptides
- total peptides (unique peptides) (USP47 (human) [13]): 2 peptides
- total peptides (unique peptides) (USP8 (human) [14]): 1 peptides
- total peptides (unique peptides) (USP9X (human) [15]): 40 peptides
- total peptides (unique peptides) (BRCC36 (human) [16]): 1 peptides
- total peptides (unique peptides) (OTUB1 (human) [17]): 10 peptides
- total peptides (unique peptides) (UCHL1 [18]): 0 peptides
- total peptides (unique peptides) (UCHL5 (human) [19]): 6 peptides
- total peptides (unique peptides) (USP10 [20]): 8 peptides
- total peptides (unique peptides) (USP11 (human) [21]): 10 peptides
- total peptides (unique peptides) (USP13 (human) [22]): 1 peptides
- total peptides (unique peptides) (USP14 (human) [23]): 3 peptides
- total peptides (unique peptides) (USP15 (human) [24]): 7 peptides
- total peptides (unique peptides) (USP24 (human) [25]): 1 peptides
- total peptides (unique peptides) (USP25 (human) [26]): 34 peptides
- total peptides (unique peptides) (USP34 [27]): 0 peptides
- total peptides (unique peptides) (USP47 (human) [28]): 0 peptides
- total peptides (unique peptides) (USP8 (human) [29]): 3 peptides
- total peptides (unique peptides) (USP9X (human) [30]): 12 peptides
